In patent US20170037089A1 (IMMATICS BIOTECHNOLOGIES, published 2017):

Target: T1, HLA-A*02 (peptide-receptive MHC class I monomer after UV-ligand exchange) (human)
T1 construct: also called HLA-A*02:01; HLA-A*0201
Assay: UV-ligand exchange, b2m ELISA; peptide exchange yield grade (>=10% +; >=20% ++; >=50 +++; >=75% ++++)
Text: Candidate peptides for T cell based therapies according to the present invention were further tested for their MHC binding capacity (affinity). The individual peptide-MHC complexes were produced by UV-ligand exchange, where a UV-sensitive peptide is cleaved upon UV-irradiation, and exchanged with the peptide of interest as analyzed. Only peptide candidates that can effectively bind and stabilize the peptide-receptive MHC molecules prevent dissociation of the MHC complexes. To determine the yield of the exchange reaction, an ELISA was performed based on the detection of the light chain (β2m) of stabilized MHC complexes. The assay was performed as generally described in Rodenko et al. (Rodenko et al., 2006).
96 well MAXISorp plates (NUNC) were coated over night with 2 ug/ml streptavidin in PBS at room temperature, washed 4× and blocked for 1 h at 37° C. in 2% BSA containing blocking buffer. Refolded HLA-A*02:01/MLA-001 monomers served as standards, covering the range of 15-500 ng/ml. Peptide-MHC monomers of the UV-exchange reaction were diluted 100 fold in blocking buffer. Samples were incubated for 1 h at 37° C., washed four times, incubated with 2 ug/ml HRP conjugated anti-32m for 1 h at 37° C., washed again and detected with TMB solution that is stopped with […]. Absorption was measured at 450 nm. Candidate peptides that show a high exchange yield (preferably higher than 50%, most preferred higher than 75%) are generally preferred for a generation and production of antibodies or fragments thereof, and/or T cell receptors or fragments thereof, as they show sufficient avidity to the MHC molecules and prevent dissociation of the MHC complexes.

peptide exchange yield [%] | Binder
20 to 50 | TLLQVVGVVSV [TLLQVVGVVSV (SEQ ID No. 7)]
50 to 75 | ALGDLVQSV [ALGDLVQSV (SEQ ID No. 52)]
20 to 50 | YLNDSLRHV [YLNDSLRHV (SEQ ID No. 21)]
50 to 75 | AMAPNHAVV [AMAPNHAVV (SEQ ID No. 13)]
20 to 50 | KMDEASAQLL [KMDEASAQLL (SEQ ID No. 14)]
50 to 75 | SLFHPEDTGQV (also called KLK3-004) [SLFHPEDTGQV (SEQ ID No. 49)]
≥ 75 | VTAQIGIVAV (also called OR51E2-001) [VTAQIGIVAV (SEQ ID No. 1)]
50 to 75 | SLLSHQVLL [SLLSHQVLL (SEQ ID No. 20)]
≥ 75 | ALLESRVNL (also called PDE11-001) [ALLESRVNL (SEQ ID No. 6)]
≥ 75 | HLLEDIAHV (also called NEFH-001) [HLLEDIAHV (SEQ ID No. 3)]
50 to 75 | YLLKDKGEYTL [YLLKDKGEYTL (SEQ ID No. 53)]
≥ 75 | SMLGEEIQL (also called GREB-001) [SMLGEEIQL (SEQ ID No. 2)]
≥ 75 | SLYDSIAFI [SLYDSIAFI (SEQ ID No. 22)]
50 to 75 | KIFSRLIYI (also called TRPM8-003) [KIFSRLIYI (SEQ ID No. 5)]
≥ 75 | ALLTFVWKL (also called TRPM8-002) [ALLTFVWKL (SEQ ID No. 4)]
50 to 75 | TLWRGPVVV [TLWRGPVVV (SEQ ID No. 10)]
20 to 50 | YLEEECPAT [YLEEECPAT (SEQ ID No. 11)]
50 to 75 | KMDEASAQL [KMDEASAQL (SEQ ID No. 16)]
50 to 75 | GMLNEAEGKAIKL [GMLNEAEGKAIKL (SEQ ID No. 9)]
50 to 75 | KMDEASAQLLA [KMDEASAQLLA (SEQ ID No. 15)]
